The values below come from publication PMC11216086, “The structure of TRAF7 coiled-coil trimer provides insight into its function in zebrafish embryonic development” (Journal of Molecular Cell Biology, 2024).

The labels stand for the following.
B1: TrxA-tagged wild-type human TRAF7 CC (fragment 270–379 aa) [human] / itself (parent)
chain: GNQDTYETHLETCRFEGLKEFLQQTDDRFHEMHVALAQKDQEIAFLRSMLGKLSEKIDQLEKSLELKFDVLDENQSKLSEDLMEFRRDASMLNDELSHINARLNMGILGS

In the experiment the parent is B1. Kind of experiment: SEC-MALS (self-association / trimerisation). Conditions: with itself; TrxA-tagged at the N-terminus; theoretical molecular weight of the WT trimer is 84.9 kDa. (In general: SEC sorts molecules by how far they enter the pores of the column.)
Consider chain 1 L78R, for which the screen value amounted to 63.5 kDa. As for chain 1 L53R, the figure is 49.5 kDa.
